The values that follow come from patent US20140086913A1 (Gilead, published 2014).

The target in the experiment is T1, mouse ECD-DDR1-Fc (mouse; human, UniProt Q03146 22-414).
T1 construct: also called mouse DDR1-ECD; wild-type mouse DDR1-ECD; not shown: human IgG1 Fc of the vector pFuse-hIgG1-Fc1 (Invivogen)
T1 sequence: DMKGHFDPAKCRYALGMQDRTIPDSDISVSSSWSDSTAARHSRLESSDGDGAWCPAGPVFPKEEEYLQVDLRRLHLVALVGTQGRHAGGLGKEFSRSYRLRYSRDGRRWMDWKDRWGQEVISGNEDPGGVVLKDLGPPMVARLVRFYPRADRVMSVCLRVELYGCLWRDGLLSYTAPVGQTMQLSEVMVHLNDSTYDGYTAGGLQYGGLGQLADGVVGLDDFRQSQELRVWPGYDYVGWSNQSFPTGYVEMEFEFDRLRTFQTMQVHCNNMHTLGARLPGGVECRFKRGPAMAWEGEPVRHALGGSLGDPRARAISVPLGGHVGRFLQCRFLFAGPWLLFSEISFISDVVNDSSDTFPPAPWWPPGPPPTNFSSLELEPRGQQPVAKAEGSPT
Description: ELISA, coated antigen. In short, it runs like this:
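Plates coated overnight at 4° C with 2 μg/mL purified tagged DDR1 ECD protein, BSA-blocked; serially diluted murine anti-DDR1 mAbs bound 1 hr at room temperature, detected with anti-mouse IgG-HRP and TMB (OD 450). Apparent KD taken as C-parameter of 4-parameter logistic fit of OD versus antibody concentration.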

B1: AB2041 (antibody, V domains shown)
VH: QVQLHQSGSELAKPGASVKMSCKASGYIFTTYWIHWLKQRPGQGLEWIGFINPDTDYTEYNQKFKDKATLTADKSSNTAYVQLSSLTSEDSAVYYCARGNYGYDGLVYWGLGTLVTVSA
VL: SIVMTQTPKFLLVSAGDRVTITCKASQSVSTDVAWYQQKPGQSPKLLIYYASNRYTGVPDRFTGSGYGTDFTFTISTVQAEDLAVYFCQQDYNSYTFGGGTKLEIKR
notes: mouse hybridoma mAb
B1: the binding result is “no binding”.
